Test results taken from patent publication US20240287172A1 (SCIRHOM, published 2024).

Assays:
hiR2-FL-Q580A-T7 = target: T1, hiR2-FL-Q580A-T7 (human, UniProt Q6PJF5 1-856); test: FACS on MEF-DKO cells expressing the variant, 3 µg/ml antibody
T1 sequence: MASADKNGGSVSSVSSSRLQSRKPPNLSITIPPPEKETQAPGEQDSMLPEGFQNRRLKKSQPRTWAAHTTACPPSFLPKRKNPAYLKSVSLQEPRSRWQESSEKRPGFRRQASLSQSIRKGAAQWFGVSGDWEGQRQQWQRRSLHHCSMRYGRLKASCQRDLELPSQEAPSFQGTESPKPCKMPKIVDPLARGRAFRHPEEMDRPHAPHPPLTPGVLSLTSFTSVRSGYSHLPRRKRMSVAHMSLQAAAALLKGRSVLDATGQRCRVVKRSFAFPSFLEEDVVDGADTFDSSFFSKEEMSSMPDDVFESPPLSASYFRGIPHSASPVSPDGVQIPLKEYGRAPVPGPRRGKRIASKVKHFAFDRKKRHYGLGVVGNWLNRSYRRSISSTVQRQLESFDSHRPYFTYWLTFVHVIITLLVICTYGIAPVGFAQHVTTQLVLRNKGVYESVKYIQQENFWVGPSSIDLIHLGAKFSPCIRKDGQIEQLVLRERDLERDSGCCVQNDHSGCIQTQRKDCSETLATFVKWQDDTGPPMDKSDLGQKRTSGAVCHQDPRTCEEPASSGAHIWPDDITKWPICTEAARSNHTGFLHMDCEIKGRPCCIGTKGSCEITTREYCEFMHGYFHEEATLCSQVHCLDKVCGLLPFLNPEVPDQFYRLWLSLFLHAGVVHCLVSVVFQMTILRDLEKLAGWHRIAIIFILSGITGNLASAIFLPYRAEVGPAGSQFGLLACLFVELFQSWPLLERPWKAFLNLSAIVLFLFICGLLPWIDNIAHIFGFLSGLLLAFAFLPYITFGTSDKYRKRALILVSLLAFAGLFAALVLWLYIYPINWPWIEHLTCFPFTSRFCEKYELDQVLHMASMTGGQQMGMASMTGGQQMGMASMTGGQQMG
Outline: (§1)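 Primary stain: antibody 3 μg/ml, 1 h on ice; controls buffer alone. Secondary: PE anti-mouse IgG F(ab′)2 1:100, 1 h on ice, light-protected. Washes at 4° C; read by flow cytometry.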

hiR2-FL-T578A-T7 = target: T2, hiR2-FL-T578A-T7 (human, UniProt Q6PJF5 1-856); test: as above
T2 sequence: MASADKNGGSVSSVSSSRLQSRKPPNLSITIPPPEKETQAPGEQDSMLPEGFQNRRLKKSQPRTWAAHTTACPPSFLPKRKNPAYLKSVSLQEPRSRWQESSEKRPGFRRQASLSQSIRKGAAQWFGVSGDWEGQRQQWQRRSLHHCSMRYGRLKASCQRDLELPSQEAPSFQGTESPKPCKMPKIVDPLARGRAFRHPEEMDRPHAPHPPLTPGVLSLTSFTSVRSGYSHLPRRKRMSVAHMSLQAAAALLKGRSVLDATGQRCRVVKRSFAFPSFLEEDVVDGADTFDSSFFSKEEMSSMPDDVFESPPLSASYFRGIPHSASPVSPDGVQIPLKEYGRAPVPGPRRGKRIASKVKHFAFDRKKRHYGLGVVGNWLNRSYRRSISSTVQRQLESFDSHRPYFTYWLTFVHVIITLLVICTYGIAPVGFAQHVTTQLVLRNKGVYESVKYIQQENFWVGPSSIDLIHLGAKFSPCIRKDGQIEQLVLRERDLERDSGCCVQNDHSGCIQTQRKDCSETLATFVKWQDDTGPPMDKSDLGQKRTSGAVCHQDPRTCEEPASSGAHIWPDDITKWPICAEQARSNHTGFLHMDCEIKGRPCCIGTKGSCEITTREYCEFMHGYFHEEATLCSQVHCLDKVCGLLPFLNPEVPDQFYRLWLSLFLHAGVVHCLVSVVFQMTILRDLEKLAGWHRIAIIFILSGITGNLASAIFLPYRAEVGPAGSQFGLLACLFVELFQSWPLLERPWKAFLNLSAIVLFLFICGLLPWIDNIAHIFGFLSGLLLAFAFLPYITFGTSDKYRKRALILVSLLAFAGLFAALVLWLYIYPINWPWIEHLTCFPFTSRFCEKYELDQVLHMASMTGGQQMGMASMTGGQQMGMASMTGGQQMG
Outline: as §1

B1: antibody 3 (antibody, V domains shown)
VH: QVTLKESGPGILQPSQTLSLTCSFSGFSLTTFAMGIGWVRQPSGKGLEWLAHIWWDGEKYNNPVLKSRLTISKDTSKNQVFLRIANVDTPDTATYYCARISSIYYIIDNWGQGTSVTVSS
VL: DIVLTQSPATLSVTPGHSVSLSCRASQSISNNLHWYQKKSHESPRLLIKYVSQSISGIPSRFSGSGSGTDFTLSINSVETEDFGMYFCQQSYNWPLTFGAGTKLELK
notes: mouse IgG, kappa light chain; also called clone #3; purified antibody 3
For B1, the “loss of binding vs wild type” value (hiR2-FL-Q580A-T7) was ≥ 30% and the “loss of binding vs wild type” value (hiR2-FL-T578A-T7) was ≥ 30%.
